Legend:
[1] = target: SNAP complex (SNAPc) immobilized on Strep-Tactin beads, Q5SXM2;Q92966;Q13487;Q16533;O75971; assay: pull-down on immobilized SNAPc, immunoblot quantification; settings: chain shown with the change
[2] = target: SNAP complex (SNAPc), Q5SXM2;Q92966;Q13487;Q16533;O75971; assay: Flag-bead pull-down, immunoblot quantification; settings: chain shown with the change

Row | Binder | ratio to parent [1] | ratio to parent [2]
1 | TFIIB, full-length human, Flag- and His-tagged, Q00403 V245A; P246A; G247A; R248A; S249A (protein) MASTSRLDALPRVTCPNHPDAILVEDYRAGDMICPECGLVVGDRVIDVGSEWRTFSNDKATKDPSRVGDSQNPLLSDGDLSTMIGKGTGAASFDEFGNSKYQNRRTMSSSDRAMMNAFKEITTMADRINLPRNIVDRTNNLFKQVYEQKSLKGRANDAIASACLYIACRQEGVPRTFKEICAVSRISKKEIGRCFKLILKALETSVDLITTGDFMSRFCSNLCLPKQVQMAATHIARKAVELDLAAAAAPISVAAAAIYMASQASAEKRTQKEIGDIAGVADVTIRQSYRLIYPRAPDLFPTDFKFDTPVDKLPQL | 0.57 | –
2 | TFIIB, full-length human, Flag- and His-tagged, Q00403 R185A; K188A; K189A (protein) MASTSRLDALPRVTCPNHPDAILVEDYRAGDMICPECGLVVGDRVIDVGSEWRTFSNDKATKDPSRVGDSQNPLLSDGDLSTMIGKGTGAASFDEFGNSKYQNRRTMSSSDRAMMNAFKEITTMADRINLPRNIVDRTNNLFKQVYEQKSLKGRANDAIASACLYIACRQEGVPRTFKEICAVSAISAAEIGRCFKLILKALETSVDLITTGDFMSRFCSNLCLPKQVQMAATHIARKAVELDLVPGRSPISVAAAAIYMASQASAEKRTQKEIGDIAGVADVTIRQSYRLIYPRAPDLFPTDFKFDTPVDKLPQL | 0.04 | –
3 | TFIIB, full-length human, Flag- and His-tagged, Q00403 R169E; K188E (protein) MASTSRLDALPRVTCPNHPDAILVEDYRAGDMICPECGLVVGDRVIDVGSEWRTFSNDKATKDPSRVGDSQNPLLSDGDLSTMIGKGTGAASFDEFGNSKYQNRRTMSSSDRAMMNAFKEITTMADRINLPRNIVDRTNNLFKQVYEQKSLKGRANDAIASACLYIACEQEGVPRTFKEICAVSRISEKEIGRCFKLILKALETSVDLITTGDFMSRFCSNLCLPKQVQMAATHIARKAVELDLVPGRSPISVAAAAIYMASQASAEKRTQKEIGDIAGVADVTIRQSYRLIYPRAPDLFPTDFKFDTPVDKLPQL | – | 0.13
4 | TFIIB, full-length human, Flag- and His-tagged, Q00403 R169E (protein) MASTSRLDALPRVTCPNHPDAILVEDYRAGDMICPECGLVVGDRVIDVGSEWRTFSNDKATKDPSRVGDSQNPLLSDGDLSTMIGKGTGAASFDEFGNSKYQNRRTMSSSDRAMMNAFKEITTMADRINLPRNIVDRTNNLFKQVYEQKSLKGRANDAIASACLYIACEQEGVPRTFKEICAVSRISKKEIGRCFKLILKALETSVDLITTGDFMSRFCSNLCLPKQVQMAATHIARKAVELDLVPGRSPISVAAAAIYMASQASAEKRTQKEIGDIAGVADVTIRQSYRLIYPRAPDLFPTDFKFDTPVDKLPQL | – | 0.32
5 | TFIIB, full-length human, Flag- and His-tagged, Q00403 S205A; V206A; D207A; L208A; I209A (protein) MASTSRLDALPRVTCPNHPDAILVEDYRAGDMICPECGLVVGDRVIDVGSEWRTFSNDKATKDPSRVGDSQNPLLSDGDLSTMIGKGTGAASFDEFGNSKYQNRRTMSSSDRAMMNAFKEITTMADRINLPRNIVDRTNNLFKQVYEQKSLKGRANDAIASACLYIACRQEGVPRTFKEICAVSRISKKEIGRCFKLILKALETAAAAATTGDFMSRFCSNLCLPKQVQMAATHIARKAVELDLVPGRSPISVAAAAIYMASQASAEKRTQKEIGDIAGVADVTIRQSYRLIYPRAPDLFPTDFKFDTPVDKLPQL | 0.54 | –
